Results from US20180155399A1.

T1: murine TFPI 1-160 (mouse), O54819
T1 chain: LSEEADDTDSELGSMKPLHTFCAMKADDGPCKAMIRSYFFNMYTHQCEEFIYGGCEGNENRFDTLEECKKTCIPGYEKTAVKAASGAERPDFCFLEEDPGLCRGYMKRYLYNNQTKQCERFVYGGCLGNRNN

B1: JBT0592 (peptide)
chain: FQSKKNVFDFGYFERLRAKL
B2: JBT0516 (peptide)
chain: FESKGNVFVFGYFERLRAKL
B3: JBT0606 (peptide)
chain: FQSKKLVFVFGYFERLRAKL
B4: JBT0577 (peptide)
chain: FQSKKNVFVFGFFERLRAKL
B5: JBT0591 (peptide)
chain: FQSKKNVDVFGYFERLRAKL
B6: JBT0605 (peptide)
chain: FQSKLNVFVFGYFERLRAKL
B7: JBT0581 (peptide)
chain: FQSKKNVFVFGYFERLFAKL
B8: JBT0588 (peptide)
chain: FQSDKNVFVFGYFERLRAKL
B9: JBT0583 (peptide)
chain: FQSKKNVFVFGYFERLRAFL
B10: JBT0590 (peptide)
chain: FQSKKNDFVFGYFERLRAKL
B11: JBT0497 (peptide)
chain: AQSKGNVFVFGYFERLRAKL
B12: JBT0576 (peptide)
chain: FQSKKNVFVFFYFERLRAKL
B13: JBT0720 (peptide)
chain: FQSKGNVFVTGYFARLRAKL
B14: JBT0525 (peptide)
chain: FQSKGNVFVFAYFERLRAKL
B15: JBT0574 (peptide)
chain: FQSKKFVFVFGYFERLRAKL
B16: JBT0597 (peptide)
chain: FQSKKNVFVFGYFERDRAKL
B17: JBT0570 (peptide)
chain: FFSKKNVFVFGYFERLRAKL
B18: JBT0602 (peptide)
chain: FLSKKNVFVFGYFERLRAKL
B19: JBT0598 (peptide)
chain: FQSKKNVFVFGYFERLDAKL
B20: JBT0582 (peptide)
chain: FQSKKNVFVFGYFERLRFKL
B21: JBT0487 (peptide)
chain: FQSKNNVFVHGYFERLRAKL
B22: JBT0572 (peptide)
chain: FQSFKNVFVFGYFERLRAKL
B23: JBT1278 (peptide)
chain: FQSVGNVFVDGYFERLSAKL
B24: JBT0571 (peptide)
chain: FQFKKNVFVFGYFERLRAKL
B25: JBT0604 (peptide)
chain: FQSLKNVFVFGYFERLRAKL
B26: JBT0783 (peptide)
chain: LKARLREFYGFVFVNKKSQF
B27: JBT0579 (peptide)
chain: FQSKKNVFVFGYFEFLRAKL
B28: JBT0520 (peptide)
chain: FQSKGDVFVFGYFERLRAKL
B29: JBT0580 (peptide)
chain: FQSKKNVFVFGYFERFRAKL
B30: JBT0603 (peptide)
chain: FQLKKNVFVFGYFERLRAKL
B31: JBT0806 (peptide)
chain: FQSKGNVFVAGYFARLRAKL
B32: JBT0528 (peptide)
chain: FQSKGNVFVFGYFDRLRAKL
B33: JBT0586 (peptide)
chain: FDSKKNVFVFGYFERLRAKL
B34: JBT0573 (peptide)
chain: FQSKFNVFVFGYFERLRAKL
B35: JBT0594 (peptide)
chain: FQSKKNVFVFGDFERLRAKL
B36: JBT1837 (peptide)
peptide: SYYKWHCAMRDMKGTMTCVWVKF
modifications: not checked

Target: T2, human Tissue Factor Pathway Inhibitor-1α (TFPI-1α) (human), P10646
T2 sequence (P10646 29-304): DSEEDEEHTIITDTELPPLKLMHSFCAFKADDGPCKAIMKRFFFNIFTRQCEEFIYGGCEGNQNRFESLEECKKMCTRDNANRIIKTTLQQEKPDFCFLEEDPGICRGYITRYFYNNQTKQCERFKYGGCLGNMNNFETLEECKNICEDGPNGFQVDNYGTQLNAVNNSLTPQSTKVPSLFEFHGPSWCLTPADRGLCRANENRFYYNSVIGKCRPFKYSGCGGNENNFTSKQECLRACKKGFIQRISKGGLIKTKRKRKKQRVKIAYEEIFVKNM
Assay: competition
Details: modification not given

IC50 [nM]	Binder
> 5000	B1
1190	B2
> 5000	B3
> 5000	B4
> 5000	B5
> 1670	B6
> 5000	B7
> 5000	B8
> 5000	B9
> 5000	B10
100	B11
> 1670	B12
27	B13
> 5000	B14
> 5000	B15
> 5000	B16
> 5000	B17
> 5000	B18

IC50 [nM]	Binder
> 5000	B19
> 5000	B20
40	B21
> 5000	B22
73	B23
> 5000	B24
> 1670	B25
> 1670	B26
> 5000	B27
188	B28
> 5000	B29
> 5000	B30
42	B31
107	B32
> 1670	B33
1370	B34
> 5000	B35

Target: T2, human Tissue Factor Pathway …
Assay: not given
Details: modification not given

EC50 [nM]	Binder
220	B13

Target: T1, murine TFPI 1-160 (mouse), O54819
Assay: cell-based or functional assay
Details: not given

FXa inhibition assay [µM]	Binder
> 10	B36
